Test results: article PMC2138052

Biological target: Rabbit muscle F-actin (rabbit) (UniProt P68135)
Assay: co-sedimentation

- stoichiometry N (cofilin/actin): 1.16
Substance: Recombinant human cofilin (from UniProt P23528 1-166) (natural protein)
